Reference: patent publication US20250019453A1 (SYNTHEKINE, published 2025)

B1: hIL2Rg_VHH-23 (VHH)
VHH: QVQLQESGGGLVQPGGSLRLSCAASGFSFSSYPMTWARQAPGKGLEWVSTIASDGGSTAYAASVEGRFTISRDNAKSTLYLQLNSLKTEDTAMYYCTKGYGDGTPAPGQGTQVTVSS
notes: As a his-tagged phage clone periplasmic extract
B2: hIL2Rg_VHH-2 (VHH)
VHH: QVQLQESGGGSVPAGGSLKLSCAASGFSFSSYPMTWARQAPGKGLEWVSTIASDGGSTAYAASVEGRFTISRDNAKSTLYLQLNSLKTEDTAMYYCTKGYGDGTPAPGQGTQVTVSS
notes: as for B1
B3: hIL2Rg_VHH-1 (VHH)
VHH: QVQLQESGGGSVQAGGSLRLSCAASGFTFDDSDMGWYRQAPGNECDLVSTISSDGSTYYADSVKGRFTISQDNAKNTVYLQMDSVKPEDTAVYYCAADFMIAIQAPGAGCWGQGTQVTVSS
notes: as for B1
B4: hIL2Rg_VHH-7 (VHH)
VHH: QVQLQESGGGLVQPGGSLRLSCAASGFTFDDREMNWYRQAPGNECELVSTISSDGSTYYADSVKGRFTISQDNAKNTVYLQMDSVKPEDTAVYYCAADFMIAIQAPGAGCWGQGTQVTVSS
notes: as for B1
B5: DR1472 (VHH)
VHH: EVQLVESGGGLVRAGDSLRLSCAVSGLASSSFFMTWFRQGQGKEREFVATISWTGRTSYYAASVKGRFTVSRDNAKNTVYLQMNSLNSEDTAVYFCAAYPRTLVRNREPIHWGQGTQVTVSS
notes: as for B1
B6: DR1453 (VHH)
VHH: EVQLVESGGRLVQAGDSLRLSCVASGRIFNTYSMGWFRQVPGKERDFVAAIRWSGGTTYYTDSVKGRFTISRDNAKNTVYLQMNSLKPEDTAVYYCWVRVRLSNTALLQRYWGQGTLVTVSS
notes: as for B1
B7: DR1460 (VHH)
VHH: EVQLVESGGGLVQTGDSLRLSCAAPESIFNNNAVYWYRQFPGKEREYVGLITIGGRTGYADSVKGRFTISRDNANNVAFLQMDSLKPEDTAVYYCATGLKFGFNFYSKTAYDYWGQGTQVTVSS
notes: as for B1
B8: DR857 (VHH)
VHH: QVQLQESGGGLVQPGGSLRLSCAASGFTFSLYDMSWVRQAPGKGLEWVSGINSGGYSTYYAASAKGRFTISRDNAKNTLYLQLSSVKTEDTAMYYCAQRGLTSPYVIPNIRLQGTQVTVSS
notes: as for B1
B9: DR1467 (VHH)
VHH: EVQLVESGGGLVQAGDSLRLSCAASGRISNYAMGWFRQAPGKEREFVAVITRSGGSTYYADSVKGRFTISRDNGKNTIDLQMNRLKPEDTAVYYCAVRRSQKLVTFGAEYPWWGQGTLVTVSS
notes: as for B1
B10: DR1452 (VHH)
VHH: EVQLVESGGGLVQAGGALRLSCAASGRTFRRFMGWFRQAPGKEREFVAAINWPGGGTYYGDSVKGRFTISRDNAKNTVYLQMNSLKPEDTANYYCAATRKYNLYKFADWGQGTQVTVSS
notes: as for B1
B11: DR1469 (VHH)
VHH: EVQLVESGGGLVQPGGSLRLSCEVSGFTFSNYWMYWIRQAPGKGLEWVSHINTNGGNTYYRHSVKGRFTISRDNAKNTLYLQMNGLKSEDTAVYYCAKANSDVGLGYYGMDYWGKGTQVTVSS
notes: as for B1
B12: DR1448 (VHH)
VHH: EVQLVESGGRLVQAGDSLRLSCVASGKSFSDYPLGWFRQAPGKAREYVAHISWSGKLTYYRSTVKGRFTISRDNAENKLYLQMNALKPEDTAVYYCAAMKLFNYGGRYCVLKPLTMYQQWSQGTQVTVSS
notes: as for B1
B13: DR1451 (VHH)
VHH: EVQLVESGGGLVQAGDSLRLSCAASERFSWGNYAMYWFRQAPGKEREFVAAIGRNSMATYYRDSAKGRFVISRDNAKNTLYLEMNALKPEDTARYYCAAKFMVADGWSRQYDYWGQGTLVTVSS
notes: as for B1
B14: DR1470 (VHH)
VHH: EVQLVESGGGSVQPGGSLRLSCAAPESIFNNNAVYWYRQFPGKEREYVGLITIGGRTGYADSVKGRFTISRDNANNVAFLQMDNLKPEDTAVYYCAARPGYWSSSYDYWGQGTQVTVSS
notes: as for B1
B15: DR1468 (VHH)
VHH: EVQLVESGGGLVQAGGSLRLSCTTSGRTGTHYAMGWFRQAPGKEREFVSLILWNGEFTTYKDSVKGRFTISREKGENTVYLQMNSLKPEDTAVYYCYLRVFARRYWGQGTQVTVSS
notes: as for B1
B16: DR1462 (VHH)
VHH: EVQLVESGGGLVQAGGSLRLSCVSSGRTFGYVAMGWFRQAPGKEREFVASINWSGGSTAYADSVKGRFTISRDNAKNTVYLQMNSLKPEDTAVYYCAGSTRFYIATMEQGSYDYWGQGTQVTVSS
notes: as for B1
B17: DR1449 (VHH)
VHH: EVQLVESGGGLVQAGGSLRLSCAASGRSFSGYAIGWFRQAPGKEREFVAVVSWRGSSTYYADSVKGRFTISRDNAKGTVYLQMNSLKPEDTAAYYCAAVPSGRSWYGRNRYWGQGTQVTVSS
notes: as for B1
B18: DR1456 (VHH)
VHH: EVQLVESGGGLVQAGGSLRLSCAASGLTFRTYYMSWFRQAPGKEREFVGVISWIGSTTLYADSVKGRFSISRDNAKNTVYLQMNNLKPEDTAVYYCAANFLREGKREPRYWGQGTQVTVSS
notes: as for B1
B19: DR1466 (VHH)
VHH: EVQLVESGGGLVRAGGSLRLSCAASGFTFSTDWMYWVRRAPGKGLEWVSLINTDGTSTSYTKSVKGRFTVSRDNAKNTLYLQMNSLKPEDTALYYCARGRTYWFYAMDYWGKGTQVTVSS
notes: as for B1
B20: DR1465 (VHH)
VHH: EVQLVESGGGLMQAGGALRLSCTASGPTFTSYTMGWFRQSPGKRREFVAVISKGGRTYYADSVKGRFTISRDNAKNTFYLQMSSLKPEDTAVYYCAGQRVGATSKYEYDYWGQGTQVTVSS
notes: as for B1
B21: DR1454 (VHH)
VHH: EVQLVESGGGLVQAGGSLRLFCASSERTFGDYPIGWFRQAPGKEREFVASISWGGSRQYYTDSVKGRFTITRDNDKNTVYLQMNSLKPEDTAVYYCWVRVRLSNTALLQRYWGQGTLVTVSS
notes: as for B1
B22: DR1455 (VHH)
VHH: EVQLVESGGGLVQTGGSLRLSCAASGRTFNSYAMGWFRQSPGKEREFVAVITWNSGRTYYADSVKGRFTISRDNAKNTVYLQMNSLKPEDTAVYYCNSAPWAHNREWGQGTLVTVSS
notes: as for B1
B23: DR1463 (VHH)
VHH: EVQLVESGGSVVQPGDSLRLACTASGRSFRSYAIGWFRQASGKERVFVAAISYDGRRTYYGRSLKDRFTISRDNAKNTVYLQMNSLKPEDTAVYYCATHRSGTMFARYGMDYWGKGTLVTVSS
notes: as for B1
B24: DR1450 (VHH)
VHH: EVQLVESGGGLVQAGGSLRLSCVISGRSINYYRMGWFRQAPGNRRQFVAAIKWGGDGVYADSVKGRFTISRDNTKNTVYLQMDSLKPEDTGTYYCAKMPLSSWSRGGYLEVWGQGTLVTVSS
notes: as for B1
B25: DR1458 (VHH)
VHH: EVQLVESGGGLVQAGGSLRLSCAASGRTLSTYAMGWFRQAPGKEREFVAAIRWASGRTYYGDSVKGRFTISRDSAKNTVYLQMNSLKPEDTAVYYCAARSRPYLNYGDFGYWGQGTQVTVSS
notes: as for B1
B26: DR1471 (VHH)
VHH: EVQLVESGGGLVQAGGSLRLSCVFSGRAPASYAMAWFRQAVGNEREFVAAINWSGRRTYYADSVKGRFTISKDNAQNTAYLQMTNLEPEDTATYYCNAYLSGTYYWGQGTQVTVSS
notes: as for B1
B27: DR1464 (VHH)
VHH: EVQLVESGGGLVQAGGSLRLSCAASGRTFSSYAMGWFRQAPGKEREFVTAISRSGGYTSYADSVKGRFTISRDNAKNTVYLQMNSLKPEDTAVYYCAKLIAPFYYGMDYWTKGTQVTVSS
notes: as for B1
B28: DR1459 (VHH)
VHH: EVQLVESGGGLVQAGGSLRLSCAASGRTISTYAMVWFRQASGKEREFVGVISRSGDRTYYADSVKGRFTISRDNLGNIVRLQLNSLKPEDTAVYYCARGGYTGIETITARGRGTLVTVSS
notes: as for B1
B29: DR1461 (VHH)
VHH: EVQLVESGGRLVQAGDSLRLSCVASGRIFNTYSMGWFRQVPGKERDFVAAIRWSGGTTYYTDSVKGRFTISRDNAKNTVYLQMKDLKPQDTAVYYCAAVPSGRSWYGRNRYWGQGTLVTVSS
notes: as for B1
B30: DR1457 (VHH)
VHH: EVQLVESGGRLVQAGDSLRLSCVASGRIFNTYSMGWFRQVPGKERDFVAAIRWSGGTTYYTDSVKGRFTISRDNAKNTVYLQMNSLKPEDTAVYYCYLRVFARRYWGQGTQVTVSS
notes: as for B1

target: T1, hIL2Rg ECD antigen (human, UniProt P31785 23-262); test: PE-ELISA of phage clones
T1 construct: The immunogen was the ECD fused to human IgG1 hinge and Fc; also called ECD of IL2Rg (human); human IL-2Rγ
T1 sequence: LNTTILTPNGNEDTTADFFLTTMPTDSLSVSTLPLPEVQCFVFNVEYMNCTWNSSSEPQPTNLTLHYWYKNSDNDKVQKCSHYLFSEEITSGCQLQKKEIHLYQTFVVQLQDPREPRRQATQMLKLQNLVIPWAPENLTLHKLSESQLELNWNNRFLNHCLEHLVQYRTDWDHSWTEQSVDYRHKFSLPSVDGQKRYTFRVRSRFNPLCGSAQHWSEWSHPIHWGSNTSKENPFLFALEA

Q: Does B1 bind?
A: Result: binds

Q: Does B2 bind?
A: Result: binds

Q: Does B3 bind?
A: Result: binds

Q: Does B4 bind?
A: Result: binds

target: T2, mIL2Rb ECD antigen (murine, UniProt P16297 27-240); test: PE-ELISA of phage clones
T2 construct: The immunogen was the ECD fused to human IgG1 hinge and Fc; also called ECD of IL2Rb (mouse)
T2 sequence: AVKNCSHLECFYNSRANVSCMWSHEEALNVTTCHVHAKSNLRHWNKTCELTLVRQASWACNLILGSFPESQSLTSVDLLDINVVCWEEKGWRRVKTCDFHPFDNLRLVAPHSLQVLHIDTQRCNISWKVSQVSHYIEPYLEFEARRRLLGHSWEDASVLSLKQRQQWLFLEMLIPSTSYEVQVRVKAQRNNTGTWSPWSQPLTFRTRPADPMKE

Q: Does B5 bind?
A: Result: binds

Q: Does B6 bind?
A: Result: binds

Q: Does B7 bind?
A: Result: binds

Q: Does B8 bind?
A: Result: binds

Q: Does B9 bind?
A: Result: binds

Q: Does B10 bind?
A: Result: binds

Q: Does B11 bind?
A: Result: binds

Q: Does B12 bind?
A: Result: binds

Q: Does B13 bind?
A: Result: binds

Q: Does B14 bind?
A: Result: binds

Q: Does B15 bind?
A: Result: binds

Q: Does B16 bind?
A: Result: binds

Q: Does B17 bind?
A: Result: binds

Q: Does B18 bind?
A: Result: binds

Q: Does B19 bind?
A: Result: binds

Q: Does B20 bind?
A: Result: binds

Q: Does B21 bind?
A: Result: binds

Q: Does B22 bind?
A: Result: binds

Q: Does B23 bind?
A: Result: binds

Q: Does B24 bind?
A: Result: binds

Q: Does B25 bind?
A: Result: binds

Q: Does B26 bind?
A: Result: binds

Q: Does B27 bind?
A: Result: binds

Q: Does B28 bind?
A: Result: binds

Q: Does B29 bind?
A: Result: binds

Q: Does B30 bind?
A: Result: binds
